In patent publication US7087392B2, “Antiproliferative SgK reagents and methods” (The Regents of the University of California, priority 1999, dated 2006):

Assays:
[1] = tested on: mammary tumor cells; experiment: Transient cell foci growth assay of transfected mammary tumor cells; format: cell-based; conditions: transfected expression vector, G418 selection
From the text: Functional evidence for a direct role of sgk in the glucocorticoid anti-proliferative pathway. In both the Con8 mammary epithelial tumor cells (from which Sgk was originally cloned) as well as human MCF-7 breast cancer cells (which were originally derived from a pleural effusion of a metastatic human breast adenocarcinoma) glucocorticoids induce a G1 block in cell cycle progression and strongly stimulate sgk transcript and protein production. […] To initially test whether Sgk has an anti-proliferative function and perhaps mediates the glucocorticoid growth inhibitory response, the full length rat or human wild type sgk cDNA was inserted downstream of the cytomegalovirus (CMV) promoter in an expression vector that also encodes the neomycin resistance gene. […] Transfection competent cells were selected in 0.5 mg/ml of the G418 neomycin derivative for two weeks.
Expression vectors encoding several point mutants or truncations of Sgk were transfected into the mammary tumor cells and cell growth monitored by the cell foci assay.
Transient transfection and rapid screen of the sgk expression vectors for the anti-proliferative response in rodent and human mammary tumor cells. A transient cell foci growth assay is employed to rapidly screen the various Sgk constructs to define the domains that mediate the anti-proliferative response in rat and human mammary tumor cells using our optimized conditions. The advantage of this assay is that many different mutant Sgk expression vectors can be simultaneously compared for their growth inhibitory effects. Also, this assay can be used to rapidly assess the proliferative effects of combinations of Sgk and its interacting proteins or substrates. Populations of human MCF-7 breast cancer cells or rat Con8 mammary tumor cells are transfected by the lipofectin transfection procedures and cultured in normally cytotoxic concentrations (750 μg/ml) of the G418 neomycin derivative to recover transfection competent cells. Approximately 5000 transfected cells are cultured as colonies on plastic, and after one to two weeks are fixed and stained in crystal violet/formalin to visualize the cell colonies. The effects on cell proliferation are quantitated by simply counting the resulting cell colonies or by scanning the total cell density on each plate. To provide a control for the fidelity of the cell foci assays, in each experiment, cells transfected with the control vectors (no Sgk sequences) are treated with or without 1 μM dexamethasone because the cells are growth suppressed by this synthetic glucocorticoid. […]

[2] = tested on: Sgk; experiment: In vitro peptide kinase assay (Sgktide, [32P]ATP) of immunoprecipitated HA-Sgk; format: biochemical; conditions: mutant forms of Sgk
From the text: Sgk is a component of the PI3 kinase cascade and is directly activated by PDK1 mediated phosphorylation of threonine 256 in the activation loop. […] To develop this kinase assay, lysates from human embryo kidney 293 cells transfected to express wild type hemagglutinin (HA)-tagged Sgk (HA-Sgk) were isolated and the Sgk immunoprecipitated with HA antibodies was used to screen a synthetic peptide library for identifying potential Sgk substrates. The immunoprecipitates were extensively washed, and incubated with the peptide in the presence of [^32P]ATP in kinase buffer (Park et al 1999). Sgk phosphorylated several peptides, and the best substrate for Sgk was KKRNRRLSVA (SEQ ID NO:01), which is named Sgktide. […] This substrate specificity is generally similar to, but not identical, with the substrate specificity for Akt, which is a well characterized down stream component of the PI 3 kinase pathway.
Cotransfection of PDK1 with Sgk caused a 6-fold activation of Sgk activity, whereas, the kinase-dead form of PDK1 had no effect. […] The Ser-78 in the amino terminal domain is a third phosphorylation site and expression of the S78G Sgk mutation ablates the presence of the slowest migrating form of phosphorylated Sgk in SDS polyacrylamide gels.

B1: K127M: Sgk with lysine 127 in the ATP binding domain substituted with methionine; kinase dead (protein, UniProt O00141 1-431, looked up, variant K127M)
Serine/threonine-protein …: MTVKTEAAKGTLTYSRMRGMVAILIAFMKQRRMGLNDFIQKIANNSYACKHPEVQSILKISQPQEPELMNANPSPPPSPSQQINLGPSSNPHAKPSDFHFLKVIGKGSFGKVLLARHKAEEVFYAVMVLQKKAILKKKEEKHIMSERNVLLKNVKHPFLVGLHFSFQTADKLYFVLDYINGGELFYHLQRERCFLEPRARFYAAEIASALGYLHSLNIVYRDLKPENILLDSQGHIVLTDFGLCKENIEHNSTTSTFCGTPEYLAPEVLHKQPYDRTVDWWCLGAVLYEMLYGLPPFYSRNTAEMYDNILNKPLQLKPNITNSARHLLEGLLQKDRTKRLGAKDDFMEIKSHVFFSLINWDDLINKKITPPFNPNVSGPNDLRHFDPEFTEEPVPNSIGKSPDSVLVTASVKEAAEAFLGFSYAPPTDSFL
- reduction in number of cell foci compared to the vector control [1]: ~2.5 fold
- kinase activity / activation of Sgk mutant [2]: kinase dead form of Sgk
